Test results published in patent US20240076386.

Assay: AC-SINS self-interaction

## Polyreactivity negative control
  AC-SINS (wavelength of maximum absorbance relative to blank, nm): 1 nm
